{
  "source": "patent US20100028347A1",
  "about": "(Eli Lilly, published 2010)",
  "key": {"[1]": {"target": "T1, native VEGFR-1 expressed on the cell surface (human, UniProt P17948 27-1338)", "T1 sequence (P17948 27-1338)": "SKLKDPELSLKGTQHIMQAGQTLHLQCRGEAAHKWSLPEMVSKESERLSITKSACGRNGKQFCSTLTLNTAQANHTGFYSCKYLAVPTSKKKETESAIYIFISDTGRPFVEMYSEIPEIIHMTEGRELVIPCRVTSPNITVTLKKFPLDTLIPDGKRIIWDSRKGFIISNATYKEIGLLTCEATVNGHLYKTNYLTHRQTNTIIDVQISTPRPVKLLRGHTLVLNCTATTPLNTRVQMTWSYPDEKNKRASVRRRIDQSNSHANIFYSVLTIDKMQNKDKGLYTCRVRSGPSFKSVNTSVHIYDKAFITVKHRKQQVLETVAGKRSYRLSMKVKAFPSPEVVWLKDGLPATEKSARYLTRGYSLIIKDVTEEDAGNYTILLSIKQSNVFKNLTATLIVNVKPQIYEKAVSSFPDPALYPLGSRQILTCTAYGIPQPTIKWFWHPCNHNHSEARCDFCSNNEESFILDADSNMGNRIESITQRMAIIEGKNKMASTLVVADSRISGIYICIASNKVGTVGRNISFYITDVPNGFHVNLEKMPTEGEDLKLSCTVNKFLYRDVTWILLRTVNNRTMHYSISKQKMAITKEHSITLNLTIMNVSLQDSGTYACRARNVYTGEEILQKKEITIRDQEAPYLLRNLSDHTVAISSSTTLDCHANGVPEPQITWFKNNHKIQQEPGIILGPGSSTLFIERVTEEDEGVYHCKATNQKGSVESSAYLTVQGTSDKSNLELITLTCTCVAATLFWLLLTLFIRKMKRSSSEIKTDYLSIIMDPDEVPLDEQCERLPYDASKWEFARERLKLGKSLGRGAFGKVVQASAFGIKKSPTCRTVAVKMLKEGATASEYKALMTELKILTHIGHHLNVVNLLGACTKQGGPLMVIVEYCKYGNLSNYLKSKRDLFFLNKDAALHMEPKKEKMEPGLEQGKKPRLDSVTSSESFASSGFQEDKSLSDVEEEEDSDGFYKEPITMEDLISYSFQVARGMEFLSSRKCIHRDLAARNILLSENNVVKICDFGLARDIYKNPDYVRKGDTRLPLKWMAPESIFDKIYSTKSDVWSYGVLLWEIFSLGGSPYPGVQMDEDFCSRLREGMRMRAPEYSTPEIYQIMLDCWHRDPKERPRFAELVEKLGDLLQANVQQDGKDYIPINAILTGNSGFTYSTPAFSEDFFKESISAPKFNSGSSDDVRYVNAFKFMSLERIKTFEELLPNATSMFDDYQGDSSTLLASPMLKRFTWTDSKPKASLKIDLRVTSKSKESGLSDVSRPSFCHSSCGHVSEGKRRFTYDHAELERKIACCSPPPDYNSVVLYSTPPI", "experiment": "cell-based or functional assay"}, "[2]": {"target": "T2, soluble recombinant human VEGFR-1 alkaline phosphatase (human, UniProt P17948 27-758)", "T2 construct": "Made in house in stably transfected cells; also called rhuVEGFR-I AP; VEGFR-I AP; not shown: alkaline phosphatase fusion partner", "T2 sequence (P17948 27-758)": "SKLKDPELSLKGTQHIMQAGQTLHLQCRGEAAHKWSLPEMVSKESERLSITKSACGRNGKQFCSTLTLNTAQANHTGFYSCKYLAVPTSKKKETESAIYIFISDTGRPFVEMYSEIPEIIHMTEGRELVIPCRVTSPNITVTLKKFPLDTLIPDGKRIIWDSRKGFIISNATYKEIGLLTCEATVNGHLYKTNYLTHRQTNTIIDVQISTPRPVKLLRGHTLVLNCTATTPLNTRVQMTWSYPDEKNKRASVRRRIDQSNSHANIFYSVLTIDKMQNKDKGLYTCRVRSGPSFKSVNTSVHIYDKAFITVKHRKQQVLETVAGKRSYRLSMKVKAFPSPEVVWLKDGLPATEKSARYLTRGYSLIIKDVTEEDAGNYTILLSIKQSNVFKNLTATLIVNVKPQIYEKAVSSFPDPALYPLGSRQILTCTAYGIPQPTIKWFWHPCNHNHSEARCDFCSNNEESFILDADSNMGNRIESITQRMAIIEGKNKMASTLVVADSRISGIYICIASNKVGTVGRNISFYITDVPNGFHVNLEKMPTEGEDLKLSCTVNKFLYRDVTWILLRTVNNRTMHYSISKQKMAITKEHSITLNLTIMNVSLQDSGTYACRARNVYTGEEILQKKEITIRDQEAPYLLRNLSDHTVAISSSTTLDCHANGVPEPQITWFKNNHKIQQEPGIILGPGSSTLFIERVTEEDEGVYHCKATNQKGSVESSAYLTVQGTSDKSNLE", "experiment": "ELISA, purified antibody on rhuVEGFR-1 AP coated plate (given as ED50)", "procedure": "(§1) Specifically, hybridoma supernatants or purified antibodies were diluted in PBS with 5% FBS and 0.05% Tween 20 (ELISA buffer) and incubated in rhuVEGFR-I AP or AP coated 96-well microtiter plates for 30 minutes. Plates were washed with the ELISA buffer and incubated with goat anti-mouse IgG-horseradish peroxidase (HRP) conjugate (BioSource International, Camarillo, Calif.) for 30 minutes. TMB (3,3′,5,5′-tetra-methylbenzidine) substrate (Kierkegaard and Perry Lab, Inc., Gaithersburg, Md.) was used for color development following the manufacturer's instruction. The absorbance at 450 nanometers (nm) was read for quantification of binding activity of antibodies. For identification of the hybridomas producing anti-VEGFR-I antibodies, hybridoma supernatants were preincubated with VEGFR-I AP for 1 hour. The mixtures were incubated with the ELISA buffer in VEGF or P1GF coated 96-well microtiter plates for 1 hour. PNPP (p-nitrophenyl phosphate) substrate for AP was used for color development following the manufacturer's instruction. The absorbance at 405 nm was read for quantification of VEGFR-I binding to VEGF or P1GF. Optical density (OD) values were read on a microtiter plate reader (Molecular Devices Corp., Sunnyvale, Calif.). ED50 and IC50 of the antibodies were analyzed using GraphPad Prism 3 software (GraphPad Software, Inc., San Diego, Calif.)."}, "[3]": {"target": "T3, recombinant extracellular domain of VEGFR-1 (UniProt P17948 27-758, limits assumed)", "T3 construct": "extracellular domain", "T3 sequence (P17948 27-758 limits assumed)": "as the sequence (P17948 27-758) above", "experiment": "SPR, BIAcore 2000, VEGFR-1 extracellular domain immobilised at low density", "procedure": "Affinities of anti-VEGFR-1 antibody clones 6F9, 13 G12, 15F1 1, 18F1 were determined by plasmon resonance technology using BIAcore 2000 (Pharmacia, Piscataway, N.J.) according to the procedures provided by the manufacturer. Kinetic analyses of the antibodies were performed by immobilization of recombinant extracellular domain of VEGFR-I onto a sensor surface at a low density. The (kₒₙ) and dissociation (kₒ_{^ff}) rates were determined using the BIAevaluation 2.1 software provided by the manufacturer."}, "[4]": {"target": "T2, soluble recombinant human VEGFR-1 …", "experiment": "blocking ELISA: antibody preincubated with VEGFR-1 AP, binding to PlGF coated plate", "procedure": "as §1"}, "[5]": {"target": "T2, soluble recombinant human VEGFR-1 …", "experiment": "blocking ELISA: antibody preincubated with VEGFR-1 AP, binding to VEGF coated plate", "procedure": "as §1"}, "[6]": {"target": "T2, soluble recombinant human VEGFR-1 …", "experiment": "ELISA: purified antibody on plate-coated rhuVEGFR-1 AP, O.D. 450", "procedure": "as §1"}, "[7]": {"target": "T4, mouse VEGFR-2 Fc (mouse, UniProt P35918 20-762, limits assumed)", "T4 construct": "not shown: Fc part; not described", "T4 sequence (P35918 20-762 limits assumed)": "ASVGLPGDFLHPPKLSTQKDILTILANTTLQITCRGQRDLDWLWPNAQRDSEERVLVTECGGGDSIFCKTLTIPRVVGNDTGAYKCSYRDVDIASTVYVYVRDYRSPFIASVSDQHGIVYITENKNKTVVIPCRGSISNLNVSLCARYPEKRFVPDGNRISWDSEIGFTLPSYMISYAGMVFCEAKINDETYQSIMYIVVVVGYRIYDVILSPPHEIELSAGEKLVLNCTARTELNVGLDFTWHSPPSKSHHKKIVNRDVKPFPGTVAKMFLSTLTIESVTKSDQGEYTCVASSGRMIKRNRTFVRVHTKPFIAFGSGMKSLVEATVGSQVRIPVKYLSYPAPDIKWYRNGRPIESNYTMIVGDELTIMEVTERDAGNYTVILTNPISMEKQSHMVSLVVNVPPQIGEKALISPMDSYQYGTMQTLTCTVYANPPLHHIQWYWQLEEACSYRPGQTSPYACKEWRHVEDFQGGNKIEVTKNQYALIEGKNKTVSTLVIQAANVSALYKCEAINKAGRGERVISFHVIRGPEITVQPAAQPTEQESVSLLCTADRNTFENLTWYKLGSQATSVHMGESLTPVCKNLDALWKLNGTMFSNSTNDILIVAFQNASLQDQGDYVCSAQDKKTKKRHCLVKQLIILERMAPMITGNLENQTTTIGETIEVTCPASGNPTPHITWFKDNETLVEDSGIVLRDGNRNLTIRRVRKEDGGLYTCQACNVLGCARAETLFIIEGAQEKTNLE", "experiment": "ELISA: antibody dilutions on plate coated with 1 µg/ml mouse VEGFR-2 Fc, HRP secondary, O.D. 450", "procedure": "To determine the specificity of an anti-VEGFR-1 monoclonal antibody to human VEGFR-I, purified antibodies 18F1 were tested in an ELISA-based assay. One μg/ml of recombinant human VEGFR-I Fc, mouse VEGFR-I Fc, mouse VEGFR-2 Fc, or human VEGFR-2 alkaline phosphatase was coated with PBS in a 96-well microtiter plates at 4° C. over night. After wash, the receptor coated plates were blocked with PBS containing 5% Dry Milk and 0.05% Tween 20. Serial dilutions of primary antibody 18F1 to human VEGFR-I, MF1 to mouse VEGFR-I, IC1 1 to human VEGFR-2, or DClOl to mouse VEGFR-2 were incubated in the receptor-coated plates for 30 minutes. After wash secondary anti-primary HRP conjugate antibodies was incubated in the plates for 30 minutes. Plates were washed and incubated with the substrate TMB (3,3′,5,5′-tetra-methylbenzidine) for color development. The absorbance at 450 nm was read as OD values for quantification of binding activity of antibodies. Data were analyzed using a GraphPad Prism Software."}, "[8]": {"target": "T1, native VEGFR-1 expressed on the cell …", "experiment": "cell-based competition: cold VEGF at 200-fold molar excess over 125I-VEGF (2 ng/ml) on PAE-VEGFR-1 cells, gamma counting", "procedure": "The binding of ¹²⁵1-VEGF to VEGFR-I on cell surface was performed using PAE-VEGFR-I expressing cells. […] Confluent cells were incubated in serum- and growth supplement-free Dulbecco's Modified Eagle Medium (DMEM)ZF-12 medium (Invitrogen, Carlsbad, Calif.) for 24 hours. Cells were rinsed once with ice-cold DMEMZF-12 medium containing 0.025 M HEPES and 1 mgZml bovine serum albumin (BSA). A serial dilution of anti-VEGFR-I antibody 18F1 or cold VEGF at the concentration of a 200-fold molar excess of labeled VEGF was added to each well in the plate and incubated at 4° C. for 1 hour. After wash, ¹²⁵I-VEGF was added at the concentration of 2 ngZml and was incubated at 4° C. for 2 hours on a platform shaker. The cells were washed three times with PBS containing 1 mgZml BSA and 0.25 mM CaCl₂, and were incubated for 5 minutes in the presence of 1% Triton X-100, 1 mgZml BSA, and 0.16% NaN₃ to remove bound VEGF. The soluble content of each well was counted in a gamma counter. The assays were performed in triplicate in at least three independent experiments and the data were analyzed using Prism GraphPad software 3.03."}},
  "data": [
    {"binder": "anti-VEGFR-1 antibody clone 13G12 (antibody, human IgG1, V domains shown, Fully human antibody (gamma heavy chain, kappa light chain) from hybridomas of KM transgenic mice, purified; The light chain entry runs a few residues into the kappa constant region) VH: QVQLVESGGGVVQPGRSLRLSCAASGFTFSSYGMHWVRQAPGKGLEWVAVIWYDGSNKYYADSVKGRFTISRDNSKNTLYLQMNSLRAEDTAVYYCARDHYGSGAHYYYYYGMDVWGQGTTVTVSS VL: not shown", "values": [
      {"measurement": "Inhibition of PlGF-induced DU4475 cell growth in vitro (IC50)", "setting": "[1]", "result": 66, "unit": "nM"},
      {"measurement": "EC50", "setting": "[2]", "result": 0.3, "unit": "nM"},
      {"measurement": "Kd", "setting": "[3]", "result": 0.121, "unit": "nM"},
      {"measurement": "kon", "setting": "[3]", "result": 950000, "unit": "M⁻¹ s⁻¹"},
      {"measurement": "IC50", "setting": "[4]", "result": 0.82, "unit": "nM"},
      {"measurement": "IC50", "setting": "[5]", "result": 0.7, "unit": "nM"}
    ]},
    {"binder": "anti-VEGFR-1 antibody clone 15F11 (antibody, V domains shown, Fully human antibody (gamma heavy chain, kappa light chain) from hybridomas of KM transgenic mice, purified; The light chain entry runs a few residues into the kappa constant region; also called FI1) VH: QVQLVESGGGVVQPGRSLRLSCAASGFTFSSYGMHWVRQAPGKGLEWVAVIWFDGSNKYYADSVKGRFTISRDNSKNTLYLQMNSLRAEDTAVYYCARDHYGSGAHSYYYYGLDVWGQGTSVTVSS VL: not shown", "values": [
      {"measurement": "Inhibition of PlGF-induced DU4475 cell growth in vitro (IC50)", "setting": "[1]", "result": 44, "unit": "nM"},
      {"measurement": "EC50", "setting": "[2]", "result": 0.3, "unit": "nM"},
      {"measurement": "Kd", "setting": "[3]", "result": 0.07, "unit": "nM"},
      {"measurement": "kon", "setting": "[3]", "result": "1.02e+06", "unit": "M⁻¹ s⁻¹"},
      {"measurement": "IC50", "setting": "[4]", "result": 0.49, "unit": "nM"},
      {"measurement": "IC50", "setting": "[5]", "result": 0.73, "unit": "nM"}
    ]},
    {"binder": "anti-VEGFR-1 antibody clone 6F9 (antibody, human IgG1, V domains shown, Fully human antibody (gamma heavy chain, kappa light chain) from hybridomas of KM transgenic mice, purified) VH: QVQLVESGGGVVQPGRSLRLSCAASGFTFSSYGMHWVRQAPGKGLEWVAVIWYDGSNKYYADSVKGRFTISRDNSKNTVYLQMNSLRAEDTAVYHCTRDHFGSGAHYYYYYGMDVWGQGTTVTVSS VL: not shown", "values": [
      {"measurement": "Inhibition of PlGF-induced DU4475 cell growth in vitro (IC50)", "setting": "[1]", "result": 43, "unit": "nM"},
      {"measurement": "EC50", "setting": "[2]", "result": 0.1, "unit": "nM"},
      {"measurement": "EC50", "setting": "[6]", "result": 0.114, "unit": "nM"},
      {"measurement": "Kd", "setting": "[3]", "result": 0.069, "unit": "nM"},
      {"measurement": "kon", "setting": "[3]", "result": "1.01e+06", "unit": "M⁻¹ s⁻¹"},
      {"measurement": "IC50", "setting": "[4]", "result": 0.86, "unit": "nM"},
      {"measurement": "IC50", "setting": "[5]", "result": 0.82, "unit": "nM"}
    ]},
    {"binder": "DC101 (antibody, V domains shown) VH: EVQLVETGGGLVQPGNSLKLSCATSGFIFSTTWMNWIRQTPGKRLEWLAQIEDKSNNYFISYSESVKGRFTISRDDSKSSVYLQMNNLKEEDTAIYYCSWKYRSNYYFDYWGQGVMVTVSS VL: DIVLTQSPALAVSLEQRATISCKTSQNVDYYGISYLHWYQQKPGQQPKLLIYEGSNLASGIPARFSGSGSGTDFTLTIDPVEADDIVTYYCQQSKDYPYTFGAGTKLELK", "values": [
      {"measurement": "EC50 (read off the curve)", "setting": "[7]", "result": "~8", "unit": "ng/mL"}
    ]},
    {"binder": "human VEGF165 (ligand, UniProt P15692-4 27-191, looked up) APMAEGGGQNHHEVVKFMDVYQRSYCHPIETLVDIFQEYPDEIEYIFKPSCVPLMRCGGCCNDEGLECVPTEESNITMQIMRIKPHQGQHIGEMSFLQHNKCECRPKKDRARQENPCGPCSERRKHLFVQDPQTCKCSCKNTDSRCKARQLELNERTCRCDKPRR", "values": [
      {"measurement": "binding result", "setting": "[8]", "result": "binds"}
    ]}
  ]
}
